The target in experiment [1] is T1, Chimera #14 (Homo sapiens (Human), UniProt P49961 1-510).
T1 construct: Expressed on CHO cells
T1 sequence: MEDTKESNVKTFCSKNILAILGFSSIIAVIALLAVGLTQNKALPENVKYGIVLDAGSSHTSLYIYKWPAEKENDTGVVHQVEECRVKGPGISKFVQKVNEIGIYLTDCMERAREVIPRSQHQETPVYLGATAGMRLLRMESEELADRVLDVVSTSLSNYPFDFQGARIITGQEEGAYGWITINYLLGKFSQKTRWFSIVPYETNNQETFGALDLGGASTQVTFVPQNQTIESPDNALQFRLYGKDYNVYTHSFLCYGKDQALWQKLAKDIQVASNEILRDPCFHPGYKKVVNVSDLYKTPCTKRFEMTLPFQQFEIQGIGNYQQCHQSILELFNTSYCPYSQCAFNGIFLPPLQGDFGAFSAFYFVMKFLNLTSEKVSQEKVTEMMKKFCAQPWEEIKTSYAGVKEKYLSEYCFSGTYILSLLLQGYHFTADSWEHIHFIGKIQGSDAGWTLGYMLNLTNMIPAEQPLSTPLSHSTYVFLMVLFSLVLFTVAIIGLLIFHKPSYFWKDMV
Put plainly: FACS on CHO cells; human CD39 with mouse S153 and T154.
Procedure: The chimeras were expressed in CHO cells and the ability of anti-human CD39 antibodies to bind the chimeras tested via FACS. In brief, cells were washed and blocked in FACS buffer (PBS/2% FBS) for 30 min on ice. […] After 2 washes, cells were resuspended in FACS buffer and analyzed on BD Fortessa. Data was processed with FlowJo. Positive binding was scored as “yes” and lack of binding was scored as “NO” and examples of FACS plots used to generate this table are in FIGS. 14.F and 14.G.

Experiment [2] deals with T2, Chimera #13 (Homo sapiens (Human), UniProt P49961 1-510).
T2 construct: Expressed on CHO cells
T2 sequence: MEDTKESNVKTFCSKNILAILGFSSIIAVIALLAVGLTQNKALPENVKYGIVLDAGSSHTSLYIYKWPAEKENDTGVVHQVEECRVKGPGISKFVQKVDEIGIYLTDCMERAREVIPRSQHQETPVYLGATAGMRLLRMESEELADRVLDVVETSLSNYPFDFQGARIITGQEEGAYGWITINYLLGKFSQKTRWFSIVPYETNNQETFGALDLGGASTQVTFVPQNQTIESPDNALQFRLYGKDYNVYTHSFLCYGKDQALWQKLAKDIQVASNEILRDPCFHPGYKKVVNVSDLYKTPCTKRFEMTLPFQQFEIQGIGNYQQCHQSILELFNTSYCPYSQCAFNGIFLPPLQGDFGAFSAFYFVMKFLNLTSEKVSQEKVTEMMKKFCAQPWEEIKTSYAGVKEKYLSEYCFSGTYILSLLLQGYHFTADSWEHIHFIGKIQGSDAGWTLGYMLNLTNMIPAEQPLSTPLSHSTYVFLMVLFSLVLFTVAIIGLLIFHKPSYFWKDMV
Briefly: FACS on CHO cells; human CD39 with mouse D99 and T154.
Procedure: (§1) The chimeras were expressed in CHO cells and the ability of anti-human CD39 antibodies to bind the chimeras tested via FACS. In brief, cells were washed and blocked in FACS buffer (PBS/2% FBS) for 30 min on ice. […] After 2 washes, cells were resuspended in FACS buffer and analyzed on BD Fortessa. Data was processed with FlowJo.

In experiment [3] the target is T3, Chimera #4 (Homo sapiens (Human), UniProt P49961 1-510).
T3 construct: Expressed on CHO cells
T3 chain: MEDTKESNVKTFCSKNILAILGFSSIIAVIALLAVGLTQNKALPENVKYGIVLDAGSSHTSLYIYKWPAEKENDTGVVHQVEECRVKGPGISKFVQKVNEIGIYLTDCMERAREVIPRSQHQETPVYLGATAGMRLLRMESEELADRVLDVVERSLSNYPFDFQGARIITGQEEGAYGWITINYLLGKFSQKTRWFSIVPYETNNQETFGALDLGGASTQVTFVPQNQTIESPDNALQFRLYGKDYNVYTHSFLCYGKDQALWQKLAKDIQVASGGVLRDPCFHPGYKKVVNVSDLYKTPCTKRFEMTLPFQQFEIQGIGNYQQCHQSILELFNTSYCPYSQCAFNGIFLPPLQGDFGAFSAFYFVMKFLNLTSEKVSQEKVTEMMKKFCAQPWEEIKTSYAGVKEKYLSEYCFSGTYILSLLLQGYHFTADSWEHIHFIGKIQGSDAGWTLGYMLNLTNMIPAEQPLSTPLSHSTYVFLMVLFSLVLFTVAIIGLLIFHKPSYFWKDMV
Briefly: FACS on CHO cells, 15 ug/ml; human M1-S274 + mouse GGV + human L278-V510.
Procedure: as §1

B1: 31901 (antibody, human IgG4 S228P, kappa, V domains shown)
VH: QVQLVQSGAEVKKPGSSVKVSCKASGGTFSSLPISWVRQAPGQGLEWMGGIGFGTANYAQKFQGRVTITADESTSTAYMELSSLRSEDTAVYYCARGGAKYAGRYGMDVWGQGTTVTVSS
VL: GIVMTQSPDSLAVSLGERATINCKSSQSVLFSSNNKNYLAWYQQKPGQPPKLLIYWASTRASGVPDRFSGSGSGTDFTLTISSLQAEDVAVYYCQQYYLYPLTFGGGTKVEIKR
In the case of B1, the binding result in experiment [1] was “no binding (tested: 15 ug/ml)”; in experiment [2], “no binding (tested: 15 ug/ml)”; in experiment [3], “binds”.

B2: 31905 (antibody, human IgG4 S228P, kappa, V domains shown)
VH: QVQLVQSGAEVKKPGSSVKVSCKASGGTFPSNAISWVRQAPGQGLEWMGGIGFGTANYAQKFQGRVTITADESTSTAYMELSSLRSEDTAVYYCARGGAKYARTYGMDVWGQGTTVTVSS
VL: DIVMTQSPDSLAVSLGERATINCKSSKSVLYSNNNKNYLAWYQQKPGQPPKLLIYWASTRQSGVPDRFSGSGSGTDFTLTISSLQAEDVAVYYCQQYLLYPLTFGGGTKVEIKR
In the case of B2, the binding result in experiment [1] is “no binding (tested: 15 ug/ml)”; in experiment [2], “no binding (tested: 15 ug/ml)”; in experiment [3], “binds”.

The values are drawn from patent publication US20210403593A1 (TIZONA THERAPEUTICS, published 2021).
